Data reported in the supplement of paper PMC12042874.
± gives the uncertainty stated by the source.

Assay: amyloid nucleation score (Sup35N fusion, yeast selection) (log enrichment); library NNK2; higher = more nucleation; inactive = no reads after selection
Summary of the method: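 Nucleation score: DiMSum log enrichment of output over input reads, centred on the mode score of non-aggregating sequences. Only sequences with at least 100 input reads were kept. Reads came from Illumina sequencing of plasmid inserts before and after 7 days of growth at 30°C without adenine and uracil, in psi-negative yeast expressing Sup35N fused to peptides of 20 random codons after 24 hours of induction with 100 μM copper sulfate.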

Substance	amyloid nucleation score
TGWCGL	5.54 ± 0.066
VQYLVDCMYWVQGMAVSE	0.475 ± 0.46
RLMSCMFFNADITAPYWSRY	6.235 ± 0.036
CVLMAMNFRCLNSTETTLLG	inactive
DYGNLYL	-0.291 ± 1.1
GKGSRFRYSIGG	0.943 ± 0.47
CDKDMRILHMYGLEASEGVY	0.526 ± 0.26
VFAWRN	-0.347 ± 1.1
ARVCPCETTSTTVVA	1.23 ± 0.48
NCESQVVDMYITIRLFVLWV	0.202 ± 0.18
LALSTCFYSWIVLAMFFHRK	3.16 ± 0.11
PFVGSSGTWP	1.5 ± 0.12
GATLGVADRPGKSAGLPWTD	0.998 ± 0.15
WYGCMVIAQWGFYYENNTSW	inactive
LDLLKNCCTASMPGSLVVGR	0.369 ± 0.65
DLVYDCKGFCIRLLLG	-1.63 ± 1
LRLLQVVGVCCSGTWVDGCW	6.074 ± 0.04
HSCSYRLLSMYTRLRTLVSG	-0.828 ± 0.64
QNQVGIRGILHHMMNSLRTQ	3.87 ± 0.055
HTGLSVGKFKVRHGNVHRVF	-0.181 ± 0.34
WYDSIMT	-0.084 ± 0.35
IFYNIVE	-1.31 ± 0.78

Substance	amyloid nucleation score
FQSHWVLERGI	-0.901 ± 1
RWIYLGYSLCLDVLLYCIEL	4.07 ± 0.06
GQACRMYTVSVFVILNLGYQ	2.53 ± 0.076
RGCSESWLSW	0.079 ± 0.34
SMCDNQKLATDFVSAPRKYG	-0.73 ± 0.79
SACWEGGSSFVIKGKTRLFG	1.94 ± 0.19
YLMRVRYSLCGLVVSVVAQD	0.856 ± 0.34
GHVCKFHTLHWR	-1.17 ± 0.61
NRAVGNEAYCRSGWSGFHSL	-0.459 ± 1.1
FIKDKKSPSCCAN	-0.866 ± 0.4
RRVVVTWMSNIPRLLSRGVN	0.171 ± 0.23
RFFHGYFCGIRCRCQAVCQL	inactive
GSSWLRPALLVNAMIDWSRV	0.934 ± 0.36
NFFSTISQVMRYILFHSKVD	-1.54 ± 0.54
VDILG	-0.094 ± 1
LYWFMD	-1.16 ± 1.1
ACANGDADVEWLSDFCEKDE	1.02 ± 0.35
LAWGNHRVLRWSAPHNIRSR	0.93 ± 0.33
VVYFFFCLDMVMTGF	4.65 ± 0.087
LSPRNPYAFVSAISDRIM	-0.97 ± 0.63
MILHCGASKGIPFLFGKDFL	-0.208 ± 0.16
RNKCYLLCLR	-0.384 ± 0.26

Substance	amyloid nucleation score
MDVES	-0.192 ± 0.45
LQVTPIIPYCVSELYMYGGM	-0.097 ± 0.79
SILLPPFSRAFDSPRIYITP	-0.82 ± 0.55
MCRFVLSASCFMYIEHRYGR	0.734 ± 0.81
ISDATLGFGLIHVGMDVWGC	5.76 ± 0.061
SNGLMSACRWYLPAFLED	inactive
YSRKYSSAKVSMGDVCHNYM	-1.19 ± 0.76
QLKYVSGNIYRLVVWVRGSP	-0.926 ± 0.37
HEYQFSYDFKFLFGSQIMYM	inactive
WFVTNGCFYSLCLTHG	5.996 ± 0.028
LSVAFRVW	-0.55 ± 0.49
RLRQEYGLLLRRGKSVP	0.252 ± 0.35
NDGIFDSTRVVETMCLRSSP	-0.129 ± 1.1
NGKNILD	inactive
YVTPSNLARNKIQRFMASLI	0.436 ± 0.8
HEESDGPNERTILVCSICVI	0.487 ± 0.28
DMFRWNSYCSIVMLYCYAYD	4.62 ± 0.063
TNFFLNKRAGYNWLLVFEVI	-0.886 ± 0.48
CSIPFSVWDCLSWYCKNIRI	-1.46 ± 0.62
FYCMKQLLNNIRWLGYSVCR	-1.28 ± 1.1
VVCLPVISLCWIFLHIIF	inactive
CHSLGVRF	3.17 ± 0.093

Substance	amyloid nucleation score
SRSVNCAVFNADSLCPKLWL	4.81 ± 0.11
LVWTD	-0.018 ± 1.1
MLAWWPFRKWRVLIRGSRGF	1.5 ± 0.35
YFTGSPVVHRLLSYNLFLRF	5.726 ± 0.039
GGSGSDYLSPSGIVEGYRLG	-0.663 ± 0.54
DFFRRFI	-0.742 ± 0.48
VVRVCRQGCLSNLSWCGWGE	-0.1 ± 1
LESMRRY	1.42 ± 0.27
NIVGHAHRLFNRMRCLRLYQ	-0.439 ± 0.32
CMFVILMYLHQGRKLNAVPS	-1.02 ± 1.1
IFPLPDLGAYSC	0.47 ± 0.65
GRENWELHIRYVR	4.06 ± 0.063
RRVPEKGLLGLYSGGLIAEV	-0.299 ± 0.74
WQIRWVYVSIWSQFAQTRGV	0.462 ± 0.29
WDSVRSWKPFPHTSNKWFIL	-0.679 ± 0.48
MHMLWETTRWASWCGYLCMG	4.93 ± 0.059
FSLQQVNFMTVSRGKCSLKL	inactive
AFASYIKNDPPGEVPMAEL	0.258 ± 0.24
HKHSISKCAKEALAALLLFV	-0.319 ± 0.76
INSQVDGFSEWPGVVQSKTL	-0.157 ± 0.38
